Patent publication US20160274129
Numbering of substitutions follows the chain as printed. Values joined by “and” are separate entries in the source; they are usually repeats but may differ in a detail not shown here. Equal entries are not always repeated.

B1: CFP-T7-H21 (protein)
chain: MTSNRADTRVIVVGGGGTIGSSTALHLVRSGYAPANITVLDTFEIPSAQSAGHDLNKIMGIDLRNKVDLQMSLEARQMWKEDELFQPFFHNTGRMDCEHTPEGIEKLKKLYQRLHDAGAGLEKTHAWLDNEDEILSKMPLLQRDQIQGWKAIWSQDGGWLAAAKAINAIGQFLKERGVKFGFGGAGSFKQPLFDDEGTTCIGVETADGTKYYADKVVLAAGAWSPTLVDLEDQCCSKAWVYAHIQLTPEEAAEYKGVPVVYNGEFGFFFEPDEFGVIKVCDEFPGFSRFKEHQPYGAPSPKRISVPRSHAKHPTDTYPDASEVSIKKAIATFLPRFQDKELFNRALCWCTDTADAALLMCEHPKWKNFILATGDSGHSFKILPNVGKYVVELIEGRLPEEMAYQWRWRPGGDALKSRRAAPPKDLADMPGWKHDPKL
B2: CFP-T7-H24 (protein)
chain: B1 chain with L63A, R113K
B3: CFP-T7-H9 (protein)
chain: B1 chain with R64H, K106D, R113A
B4: CFP-T7-H28 (protein)
chain: B1 chain with L63H, E102K, R113K
B5: CFP-T7-H25 (protein)
chain: B1 chain with L63D, R113K
B6: CFP-T7-H14 (protein)
chain: B1 chain with K106D
B7: CFP-T7-H27 (protein)
chain: B1 chain with L63K, R113K
B8: CFP-T7-62D (protein)
chain: B1 chain with K106D, L110Q, R113A
B9: CFP-T7-H7 (protein)
chain: B1 chain with R64A, K106D, R113A
B10: CFP-T7-H11 (protein)
chain: B1 chain with R113A
B11: CFP-T7-H13 (protein)
chain: B1 chain with K106D, R113K
B12: CFP-T7-H26 (protein)
chain: B1 chain with L63H, R113K
B13: CFP-T7-H29 (protein)
chain: B1 chain with L63H, R113K, A419K
B14: CFP-T7-H12 (protein)
chain: B1 chain with K106R, R113A
B15: CFP-T7-H8 (protein)
chain: B1 chain with R64E, K106D, R113A
B16: CFP-T7-H10 (protein)
chain: B1 chain with K106A, R113A
B17: CFP-T7-H1 (protein)
chain: B1 chain with D62A, K106D, L110Q, R113A
B18: CFP-T7-H20 (protein)
chain: B1 chain with R113K
B19: FAOAo2 (protein)
chain: MTVTKSSSILIIGAGTWGASTALHLGRRGYTNVTVLDPYTVPSAISAGNDVNKIISSGQYSNKKDEIEVNEILAEEAFKGWTTDPLFKPYYHDTGVVMSACSSAGLDRLGIRVRPEEEPDVSEVTKPEHFRQLAPAVLKGNFPGWRGYHIRSNAGWAHARNALVAAIREAEKLGVKFVTGTQGRVITLIFENNDVKGAVTADGKIWRAEQTVLCAGANAAQFLDFKDQLRPTAWTLAHIRLKPEERALYKNLPVIFNIEKGFFFEPDEERGEIKICDEHPGYTNMVKSADGHLTSLPFEKTQIPKESEARVRALLSETMPQLADRPFSFARVCWCADTANREFIIDRHPEHPSLVLGCGASGRGFKYLPSIGNLIVDAIEDKVPEKVHKLTRWSPDIAVDRKWRDTLGRFGGPNRVMDFHDVKEWTNVQNKDTAKL

Molecular target: T1, α-fructosyl-valyl-histidyl-leucyl-threonyl-proryl-glutamic acid
T1 chain: VHLTPE

Compared with B1, B8 is lower in Specific activity (U/mg), 1 mM αF6P, purified enzyme: 0.795 U/mg for the first, 0.018 U/mg for the second.

Going from B18 to B19, the Specific activity (U/mg), 1 mM αF6P, purified enzyme falls from 0.85 U/mg to 0.0022 U/mg.

Going from B1 to B2, the αF6P oxidation activity (crude enzyme; αFVH oxidation activity = 100) (relative (αFVH = 100)) rises from 20.8 to 86.7.

First: B4
Second: B6
The αF6P oxidation activity (crude enzyme; αFVH oxidation activity = 100) (relative (αFVH = 100)) of the first is higher: 134 for the first, 4.22 for the second.

Compared with B10, B11 is lower in αF6P oxidation activity (crude enzyme; αFVH oxidation activity = 100) (relative (αFVH = 100)): 12.5 for the first, 4.33 for the second.

Compared with B12, B13 is higher in αF6P oxidation activity (crude enzyme; αFVH oxidation activity = 100) (relative (αFVH = 100)): 84.3 for the first, 111 for the second.

Going from B14 to B17, the αF6P oxidation activity (crude enzyme; αFVH oxidation activity = 100) (relative (αFVH = 100)) falls from 11.6 to 0.0316.

Work on B18 yielded a αF6P oxidation activity (crude enzyme; αFVH oxidation activity = 100) (relative (αFVH = 100)) of 20.5.

With B1 the αF6P/αFV was 0.0377 and 0.0372.
B18 was tested, and the αF6P/αFV was 0.0377 and 0.0389.

In the case of B1, the αF6P/αFVH is reported as 0.196 and 0.208.
With B18 the αF6P/αFVH was 0.205 and 0.198.

Going from B2 to B5, the αF6P oxidation activity ratio (crude enzyme; CFP-T7-H20 = 100) (relative (CFP-T7-H20 = 100)) falls from 123 to 24.

First: B7
Second: B12
The αF6P oxidation activity ratio (crude enzyme; CFP-T7-H20 = 100) (relative (CFP-T7-H20 = 100)) of the first is lower: 7 for the first, 142 for the second.

First: B2
Second: B4
The αF6P/αFV of the first is lower: 0.0461 for the first, 0.124 for the second.

Going from B6 to B8, the αF6P/αFV falls from 0.00519 to 0.00113.

Going from B10 to B11, the αF6P/αFV falls from 0.0245 to 0.00579.

First: B12
Second: B13
The αF6P/αFV of the first is lower: 0.0773 for the first, 0.111 for the second.

Compared with B14, B17 is lower in αF6P/αFV: 0.0165 for the first, 0.000222 for the second.

First: B2
Second: B4
The αF6P/αFVH of the first is lower: 0.867 for the first, 1.34 for the second.

Compared with B6, B8 is lower in αF6P/αFVH: 0.0422 for the first, 0.00132 for the second.

First: B10
Second: B11
The αF6P/αFVH of the first is higher: 0.125 for the first, 0.0433 for the second.

Going from B12 to B13, the αF6P/αFVH rises from 0.843 to 1.11.

Going from B14 to B17, the αF6P/αFVH falls from 0.116 to 0.000316.

Going from B3 to B6, the αF6P oxidation activity ratio (crude enzyme; CFP-T7-H6 = 100) (relative (CFP-T7-H6 = 100)) rises from 44 to 183.

Going from B9 to B10, the αF6P oxidation activity ratio (crude enzyme; CFP-T7-H6 = 100) (relative (CFP-T7-H6 = 100)) rises from 17 to 951.

Going from B11 to B14, the αF6P oxidation activity ratio (crude enzyme; CFP-T7-H6 = 100) (relative (CFP-T7-H6 = 100)) rises from 207 to 636.

Going from B15 to B16, the αF6P oxidation activity ratio (crude enzyme; CFP-T7-H6 = 100) (relative (CFP-T7-H6 = 100)) rises from 2 to 301.

Going from B4 to B13, the αF6P oxidation activity ratio (crude enzyme; CFP-T7-H26 = 100) (relative (CFP-T7-H26 = 100)) falls from 117 to 102.

For B8, the “fold of specific activity on αF6P against PnFX (Amadoriase 26/Comparative Example 3)” value was 2 times (Amadoriase 26/Comparative Example 3) to 1,940 times (Amadoriase 25/Comparative Example 2).

Molecular target: T2, α-fructosyl-valyl-histidine
T2 chain: VH

Going from B1 to B8, the Specific activity (U/mg), 1 mM αFVH, purified enzyme falls from 4.05 U/mg to 1.62 U/mg.

Protein B18 has a Specific activity (U/mg), 1 mM αFVH, purified enzyme of 4.28 U/mg.
